Test results as given in PMC4363471, “Crystal Structure of Helicobacter pylori Pseudaminic Acid Biosynthesis N-Acetyltransferase PseH: Implications for Substrate Specificity and Catalysis” (PLoS ONE, 2015).

Molecular target: the molecule itself
Test: SEC; Superdex 200 HiLoad 26/60 gel filtration, 50 mM Tris/HCl pH 8.0, 200 mM NaCl; molecular weight from a calibration plot of log MW versus retention volume

B1: Pseudaminic acid biosynthesis protein H (PseH) from Helicobacter pylori (enzyme, UniProt O25094 1-180, looked up)
chain: MKKNYSYKNIQAIDFTNLNDGEKLLVLEFRNHPNTALWMYSTFISLKTHLQFIEDLKNSPNHRYFLFKEEGVYLGVGSITKINFFHKHGYLGIYKNPFLKNGGETILKALEFIAFEEFQLHSLHLEVMENNFKAIAFYEKNHYELEGRLKGFISKDKEFIDVLLYYKDKKGYNDQSLLKL
notes: PseH, N-acetyltransferase (EC 2.3.1.202) of H. pylori, 21 kDa, residues 1-180; the construct carries an additional GIDPFT fragment (cloning artifact); it is probably N-terminal, left after cleavage of a vector tag (surmised); Crystallised with the cofactor acetyl-CoA; also called flagellin modification protein H; FlmH; source: recombinant, purified as previously described [14]
  stoichiometry N: 2
